T1: human Islet Amyloid Polypeptide (human)
T1 peptide: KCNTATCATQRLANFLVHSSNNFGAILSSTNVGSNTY


Biological target: T1, human Islet Amyloid Polypeptide
Assay: cell-based or functional assay

Binder	cell viability of RIN-m cells (MTT viability assay)
KCNTATCVTQRLANFLLRSSNNLGAILSPTNVGSNTY [raccoon IAPP]	72 % cell viability
KCNTATCATQRLANFLIRSSNNLGAILSPTNVGSNTY [cat IAPP]	~62 % cell viability
KCNTATCATQRLANFLVRSSNNLGAILSPTNVGSNTY [seal IAPP]	~62 % cell viability
KCNTATCVTQRLADFLVRSSSNIGAIYSPTNVGSNTY [chicken IAPP]	76 % cell viability
